# Biological target: LFA-1 (Homo sapiens, UniProt P20701)
# Assay: BLI
# Sequence of LFA-1 (P20701 26-1170, chain 1 of 2): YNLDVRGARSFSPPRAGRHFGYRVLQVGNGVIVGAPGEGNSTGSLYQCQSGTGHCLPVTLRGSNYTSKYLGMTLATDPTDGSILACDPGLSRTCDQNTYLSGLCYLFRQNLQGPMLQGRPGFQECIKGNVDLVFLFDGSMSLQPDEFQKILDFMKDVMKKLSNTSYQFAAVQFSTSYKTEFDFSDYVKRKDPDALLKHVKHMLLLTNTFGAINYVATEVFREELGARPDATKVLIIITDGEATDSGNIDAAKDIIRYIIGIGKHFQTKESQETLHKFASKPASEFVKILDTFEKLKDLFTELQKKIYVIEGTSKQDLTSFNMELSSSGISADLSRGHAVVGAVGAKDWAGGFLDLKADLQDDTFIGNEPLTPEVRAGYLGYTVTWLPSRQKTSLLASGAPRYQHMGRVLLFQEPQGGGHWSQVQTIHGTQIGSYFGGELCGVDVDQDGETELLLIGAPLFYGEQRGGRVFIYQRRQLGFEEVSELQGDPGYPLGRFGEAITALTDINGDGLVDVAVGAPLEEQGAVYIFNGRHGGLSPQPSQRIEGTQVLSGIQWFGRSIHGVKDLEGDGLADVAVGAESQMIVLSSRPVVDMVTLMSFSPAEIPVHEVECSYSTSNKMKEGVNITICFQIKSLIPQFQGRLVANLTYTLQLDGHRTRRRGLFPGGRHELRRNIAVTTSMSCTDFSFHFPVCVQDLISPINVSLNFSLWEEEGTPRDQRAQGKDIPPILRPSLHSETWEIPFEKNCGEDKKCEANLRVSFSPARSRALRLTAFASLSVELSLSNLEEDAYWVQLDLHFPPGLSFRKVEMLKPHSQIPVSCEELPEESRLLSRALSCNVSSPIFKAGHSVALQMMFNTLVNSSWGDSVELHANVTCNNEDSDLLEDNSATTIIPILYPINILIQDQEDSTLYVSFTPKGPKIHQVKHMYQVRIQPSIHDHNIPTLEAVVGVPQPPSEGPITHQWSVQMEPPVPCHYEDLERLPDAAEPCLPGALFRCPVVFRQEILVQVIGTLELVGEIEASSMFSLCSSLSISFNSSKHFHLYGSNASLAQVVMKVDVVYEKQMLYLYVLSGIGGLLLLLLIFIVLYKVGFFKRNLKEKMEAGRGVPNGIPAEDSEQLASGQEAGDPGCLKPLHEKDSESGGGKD
# Sequence of LFA-1 (chain, as listed by the source, chain 2 of 2): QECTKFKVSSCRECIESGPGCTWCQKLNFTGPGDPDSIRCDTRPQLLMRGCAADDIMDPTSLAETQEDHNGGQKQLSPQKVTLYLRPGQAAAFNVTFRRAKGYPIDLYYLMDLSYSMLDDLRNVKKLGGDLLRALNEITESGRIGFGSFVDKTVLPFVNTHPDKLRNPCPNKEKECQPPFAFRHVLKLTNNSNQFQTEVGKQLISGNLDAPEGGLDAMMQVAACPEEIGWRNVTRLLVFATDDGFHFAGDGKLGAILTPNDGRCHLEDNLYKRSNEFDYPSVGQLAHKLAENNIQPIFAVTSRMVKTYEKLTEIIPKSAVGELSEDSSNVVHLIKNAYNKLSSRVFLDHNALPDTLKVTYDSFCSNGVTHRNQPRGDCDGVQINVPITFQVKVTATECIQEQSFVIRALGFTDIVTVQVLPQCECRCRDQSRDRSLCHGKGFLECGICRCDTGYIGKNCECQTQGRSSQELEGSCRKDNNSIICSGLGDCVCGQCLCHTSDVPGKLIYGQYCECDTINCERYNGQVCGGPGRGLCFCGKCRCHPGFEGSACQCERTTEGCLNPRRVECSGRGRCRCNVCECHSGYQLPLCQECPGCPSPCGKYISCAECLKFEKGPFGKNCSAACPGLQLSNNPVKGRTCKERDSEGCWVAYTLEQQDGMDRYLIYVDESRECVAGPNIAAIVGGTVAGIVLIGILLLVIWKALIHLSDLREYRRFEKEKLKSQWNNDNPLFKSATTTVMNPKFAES
binder,measurement,value
GBP-130 ectodomain (protein) MRLSKVSDIKSTGVSNYKNFNSKNSSKYSLMEVSKKNEKKNSLGAFHSKKILLIFGIIYVVLLNAYICGDKYEKAVDYGFRESRILAEGEDTCARKEKTTLRKSKQKTSTRTVATQTKKDEENKSVVTEEQKVESDSEKQKRTKKVVKKQINIGDTENQKEGKNVKKVIKKEKKKEESGKPEENKHANEASKKQEPKASKVSQKPSTSTRSNNEVKIRAASNQETLTSADPEGQIMREYAADPEYRKHLEIFYKILTNTDPNDEVERRNADNKEDLTSADPEGQIMREYASDPEYRKHLEIFYKILTNTDPNDDVERRNADNKEDLTSADPEGQIMREYAADPEYRKHLEVFHKILTNTDPNDEVERRNADNKEDLTSADPEGQIMREYAADPEYRKHLEVFHKILTNTDPNDEVERRNADNKELTSSDPEGQIMREYAADPEYRKHLEVFHKILTNTDPNDEVERRNADNKEDLTSADPEGQIMREYAADPEYRKHLEVFHKILTNTDPNDEVERRNADNKEDLTSADPEGQIMREYAADPEYRKHLEIFHKILTNTDPNDEVERRNADNKEDLTSADPEGQIMREYAADPEYRKHLEIFYKILTNTDPNDEVERRNADNKEELTSSDPEGQIMREYAADPEYRKHLEIFHKILTNTDPNDEVERRNADNKEDLTSADPEGQIMREYAADPEYRKHLEIFYKILTNTDPNDEVERRNADNKEDLTSADPEGQIMREYASDPEYRKHLEIFYKILTNTDPNDDVERRNADNKEDLTSADPEGQIMREYAADPEYRKHLEVFHKILTNTDPNDEVERQNADNNEA,Kd,15 nM

# From PMC13218722 (2026)
